Measured values: patent publication US8933202B2, “AXL antibodies” (U3 Pharma GmbH, priority 2007, dated 2015)

What was measured:
[1] = test system: PC-3-LN prostate carcinoma; experiment: Orthotopic prostate carcinoma xenograft model in nude mice; format: in vivo, NMRI nu/nu mice
Description: The anti-tumor efficacy of therapeutic antibodies is often evaluated in human xenograft tumor studies. In these model systems, human tumors grow as xenografts in immunocompromised mice and therapeutic efficacy is measured by the degree of tumor growth inhibition. The aim of this study was to evaluate whether the antagonistic rat anti-AXL antibody 11B7 of the invention interferes with tumor growth of human prostate cancer cells in nude mice. In brief, on day 0, 7-8 weeks old male NMRI^−nu/nu mice (approximate weight: 30 g after acclimatization) were anesthesized with 1.5-2.0 volume percent isoflurane at an oxygen flow rate of 2 l/min, and 1×10^6 PC-3-LN cells in 25 μl PBS were orthotopically implanted into the prostate. PC-3-LN cells are derived from the PC-3 prostate carcinoma cell line which was infected with a retrovirus coding for a luciferase-neomycin fusion protein. The onset of tumor growth and tumor growth progression was therefore measurable via in vivo bioluminescence imaging. For this purpose, luciferin was injected intraperitoneally (i.p.) into the mice and light emission was measured 10 min post injection using a NightOWL LB 981 bioluminescence imaging system (Berthold Technologies, Germany). Prior to first treatment, mice were randomized and statistical tests performed to assure uniformity in starting tumor volumes (mean, median and standard deviation) across the treatment groups of 10 animals each. On day 8, all treatments started and were continued until day 34, followed by necropsy on day 35. […] In the same experiment as described under “Rat anti-AXL antibodies of the invention reduce human prostate carcinoma growth in nude mice”, relocalization of PC-3-LN tumor cells into other organs (metastasis) was analyzed post necropsy to evaluate anti-metastatic effects of the antagonistic rat anti-AXL antibody 11B7 of the invention. […] Subsequently, light emission was measured using a NightOWL LB 981 bioluminescence imaging system (Berthold Technologies, Germany).

p42/p44 MAP-Kinase = p42/p44 MAP-Kinase phosphorylation ELISA, rat versus chimeric antibody; format: cell-based, human; settings: 50 ng/ml to 10 μg/ml antibody, 400 ng/ml Gas6; CaSki
Description: To additionally verify whether the rat anti-Axl antibodies of the invention and the corresponding chimeric anti-Axl antibodies of the invention were also able to inhibit Gash-induced activation of p42/p44 MAP-Kinase in CaSki cervical cancer cells to similar extent, ELISA experiments were performed. Here, Gas6-induced p42/p44 MAP-Kinase activation was detected by increased protein (Thr202/Tyr204) phosphorylation. In brief, on the first day, 2×10^4 cells per well were seeded in flat-bottom 96 well plates. The next day, normal growth medium was replaced by serum-free medium to starve cells for 24 h. Thereafter, cells were pre-incubated with 50 ng/ml, 100 ng/ml, 300 ng/ml, 750 ng/ml, 1 μg/ml, and 10 μg/ml of rat anti-Axl antibody 11B7 or chimeric anti-Axl antibody ch11B7 for 1 h at 37° C. and then treated with or without 400 ng/ml Gas6 (R&D Systems) for 10 min at 37° C. Medium was flicked out and cells were fixed with 4% formaldehyde in PBS (pH 7.5) for 30 min at room temperature. Formaldehyde solution was removed and cells were washed twice with wash buffer (PBS, 0.1% Tween 20). Cells were quenched with 1% H2O2, 0.1% NaN3 in wash buffer and incubated for 20 min at room temperature. […] Tetramethylbenzidine (TMB, Calbiochem) was added and monitored at 620 nm.

B1: 11B7: antagonistic rat anti-AXL monoclonal antibody, rat IgG1 (antibody, V domains shown)
VL: DIQMTQAPSSLPASLGDRVTITCRASQDIGNYLRWFQQKPGKSPRLMISGATNLAAGVPSRFSGSRSGSDYSLTISSLESEDMADYYCLQSKESPWTFGGGTKLELK
VH: EVQLQESGPGLVKPSQSLSLTCSVTGYSITSNYWGWIRKFPGDKMEWMGYITYSGSTSYNPSLKSRISITRDTSKNQFFLQLNSVTSEDTATYYCAITTFYYWGQGVMVTVSS
overall growth of PC-3-LN prostate tumors (in vivo bioluminescence) ([1]; 25 mg/kg i.p. 3x a week, day 8 to 34, compared to isotypic control antibody 1D5): reduced the overall growth of PC-3-LN prostate tumors
occurrence of spleen metastases ([1]; 25 mg/kg i.p. 3x a week, post necropsy, compared to 1D5): reduced the occurrence of spleen metastases
anti-metastatic effect compared with Sutent ([1]; 11B7 25 mg/kg i.p. versus Sutent 40 mg/kg p.o. daily, spleen): stronger than that of Sutent
Gas6-induced p42/p44 MAP-Kinase activation, concentration-dependent (p42/p44 MAP-Kinase): able to block Gas6-induced activation of p42/p44 MAP-Kinase in CaSki cervical cancer cells to similar extent
